The values that follow come from paper PMC10011731.

In the test the target is Taxol-stabilized microtubules (bovine brain tubulin) (bovine) (UniProt Q6B856). Briefly: TIRF microscopy of purified proteins on surface-bound microtubules (in vitro reconstitution); Taxol-stabilised biotinylated microtubules bound to NeutrAvidin coverslips; 100 nM CLASP2α-GFP or 100 nM GFP-L-TOG2-S with […] TRITC-phalloidin F-actin flowed in; imaging buffer with MRB80, Taxol, 0.2 mM ATP; 35°C; PCC after 10 min, time-lapse up to 40 min.

Substance “His-CLASP2α-EGFP-Strep (natural protein)” displayed a Pearson correlation coefficient (PCC) of the CLASP2α-GFP and microtubule signals of 0.88.
